Results taken from patent US20210371517A1.
Where two headings read alike, the source gives them in different places.

How the values were obtained:
Experiment in all cases: cell-based or functional assay
CD171 (L1CAM) (human) [1] = target: CD171 (L1CAM) (human) (UniProt P32004)
CD171 (L1CAM) (human) [2] = target: CD171 (L1CAM) (human) (UniProt P32004); remark: listed apart in the source
Fas (CD95) (human) = Fas (CD95) (human) (UniProt P25445)
UniProt P25445, sequence (P25445 26-335): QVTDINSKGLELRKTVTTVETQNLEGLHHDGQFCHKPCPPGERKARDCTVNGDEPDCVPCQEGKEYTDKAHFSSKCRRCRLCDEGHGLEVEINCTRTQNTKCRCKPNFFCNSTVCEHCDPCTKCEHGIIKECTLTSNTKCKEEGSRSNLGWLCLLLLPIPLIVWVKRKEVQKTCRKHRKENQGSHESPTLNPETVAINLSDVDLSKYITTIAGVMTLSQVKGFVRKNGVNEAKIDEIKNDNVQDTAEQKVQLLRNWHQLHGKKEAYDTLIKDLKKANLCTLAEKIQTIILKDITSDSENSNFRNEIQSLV

UniProt P32004, sequence (P32004 20-1257): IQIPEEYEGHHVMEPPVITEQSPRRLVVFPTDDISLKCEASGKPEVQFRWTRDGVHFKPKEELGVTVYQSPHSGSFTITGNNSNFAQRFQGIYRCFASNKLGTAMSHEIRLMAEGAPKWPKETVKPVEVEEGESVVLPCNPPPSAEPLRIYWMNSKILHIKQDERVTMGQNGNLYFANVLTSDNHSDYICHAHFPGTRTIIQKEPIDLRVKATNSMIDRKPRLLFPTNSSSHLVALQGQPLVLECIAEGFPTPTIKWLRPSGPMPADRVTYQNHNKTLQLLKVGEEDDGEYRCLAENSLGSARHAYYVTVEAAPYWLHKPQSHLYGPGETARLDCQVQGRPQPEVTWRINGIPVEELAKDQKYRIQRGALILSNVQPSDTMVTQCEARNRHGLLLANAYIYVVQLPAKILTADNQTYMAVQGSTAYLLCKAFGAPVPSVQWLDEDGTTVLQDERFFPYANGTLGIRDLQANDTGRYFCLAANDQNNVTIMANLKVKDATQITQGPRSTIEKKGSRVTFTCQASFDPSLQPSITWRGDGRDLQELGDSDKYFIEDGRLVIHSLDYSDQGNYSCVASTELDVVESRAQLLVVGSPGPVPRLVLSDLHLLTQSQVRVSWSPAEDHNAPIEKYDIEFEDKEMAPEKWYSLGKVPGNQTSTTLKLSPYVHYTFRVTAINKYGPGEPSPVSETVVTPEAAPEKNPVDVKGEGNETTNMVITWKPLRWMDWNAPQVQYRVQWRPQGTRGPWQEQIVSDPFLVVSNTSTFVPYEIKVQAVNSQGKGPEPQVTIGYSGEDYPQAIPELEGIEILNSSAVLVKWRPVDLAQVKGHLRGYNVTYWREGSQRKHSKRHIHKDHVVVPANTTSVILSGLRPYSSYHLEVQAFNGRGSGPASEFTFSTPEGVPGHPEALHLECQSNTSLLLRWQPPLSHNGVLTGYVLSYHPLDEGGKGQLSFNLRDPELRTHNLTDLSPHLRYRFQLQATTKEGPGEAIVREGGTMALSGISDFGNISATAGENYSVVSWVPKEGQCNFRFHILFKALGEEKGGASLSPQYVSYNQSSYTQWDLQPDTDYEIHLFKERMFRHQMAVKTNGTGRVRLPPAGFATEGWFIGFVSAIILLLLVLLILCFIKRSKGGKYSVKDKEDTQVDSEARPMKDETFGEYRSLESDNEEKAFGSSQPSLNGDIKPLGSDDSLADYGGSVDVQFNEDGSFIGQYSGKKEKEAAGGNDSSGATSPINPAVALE
CE7scFv-IgG4hinge-CD28tm/cyto-4-1BB-zeta (short) CD171-specific chimeric receptor with two costimulatory domains, sequence (main): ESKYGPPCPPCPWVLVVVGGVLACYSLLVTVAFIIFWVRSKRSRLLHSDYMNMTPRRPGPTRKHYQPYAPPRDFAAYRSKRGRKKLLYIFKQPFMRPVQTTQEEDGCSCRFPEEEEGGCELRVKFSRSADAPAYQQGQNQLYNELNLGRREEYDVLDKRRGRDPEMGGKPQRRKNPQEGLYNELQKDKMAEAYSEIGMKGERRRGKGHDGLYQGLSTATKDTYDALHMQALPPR

Row | % CD25+CD69+ T cells after round III of tumor cell co-culture (CD171 (L1CAM) (human) [1]) [%] | % CD25+CD69+ T cells, stress test round I with Be2 cells (CD171 (L1CAM) (human) [1]) [%] | % CD25+CD69+ T cells, stress test round II with Be2 cells (CD171 (L1CAM) (human) [1]) [%] | % CD25+CD69+ T cells, stress test round III with Be2 cells (CD171 (L1CAM) (human) [1]) [%] | % CD25+CD69+ T cells after round III of tumor cell co-culture (CD171 (L1CAM) (human) [2]) [%] | IL-2 secretion in Be2 co-culture, fold over 2G-CAR(SS) (CD171 (L1CAM) (human) [1]) [fold] | TNF-α secretion in Be2 co-culture, fold over 2G-CAR(SS) (CD171 (L1CAM) (human) [1]) [fold] | cytolytic activity against Be2 targets, fold over 2G-CAR(SS) (CD171 (L1CAM) (human) [1]) [fold] | induction of CD137 expression upon tumor contact, fold over 2G-CAR(SS) (CD171 (L1CAM) (human) [1]) [fold] | IFN-γ secretion in Be2 co-culture, fold over 2G-CAR(SS) (CD171 (L1CAM) (human) [1]) [fold] | percentage of cells expressing activation marker CD137, fold over CD171-CAR(SS) (CD171 (L1CAM) (human) [1]) [fold] | phospho-ERK level after co-culture with CD171+ Be2 cells, fold over CD171-CAR(SS) (CD171 (L1CAM) (human) [1]) [fold] | Substance | T cell viability of 2G-CAR(LS) CTLs after round III following siRNA knockdown of Fas, fold increase (Fas (CD95) (human)) [fold] | T cell viability of 2G-CAR(LS) CTLs after round III following siRNA knockdown of FasL, fold increase (Fas (CD95) (human)) [fold]
1 | 40 | 46.8 | 47.6 | 42.1 | 42 |  |  |  |  |  |  |  | CE7scFv-IgG4hinge-CD28tm/4-1BB-zeta (short) CD171-specific chimeric receptor |  | 
2 | 60 |  |  |  |  | 5.1 | 2.5 | 1.3 | 8.4 |  |  |  | CE7scFv-IgG4hinge-CD28tm/cyto-4-1BB-zeta (short) CD171-specific chimeric receptor with two costimulatory domains |  | 
3 |  | 79.4 | 74 | 65.7 | 66 | 6.3 | 6.1 |  |  | 8.4 | 5.7 | 3.1 | Ce7scFv-IgG4hinge-CH2-CH3-CD28tm/4-1BB-zeta (long construct) CD171-specific chimeric receptor |  | 
4 |  |  |  |  |  |  |  |  |  |  |  |  | Fas ligand (FasL, CD178) (from UniProt P48023 1-281) | 1.4 | 1.6
